Measurements published in article PMC2275666 (The EMBO Journal, 2008).

Tests used:
Assay in all cases: pull-down
6H–hTFIIEα V372A = biological target: T1, 6H–hTFIIEα V372A (human, UniProt P29083 1-439, V372A)
T1 sequence: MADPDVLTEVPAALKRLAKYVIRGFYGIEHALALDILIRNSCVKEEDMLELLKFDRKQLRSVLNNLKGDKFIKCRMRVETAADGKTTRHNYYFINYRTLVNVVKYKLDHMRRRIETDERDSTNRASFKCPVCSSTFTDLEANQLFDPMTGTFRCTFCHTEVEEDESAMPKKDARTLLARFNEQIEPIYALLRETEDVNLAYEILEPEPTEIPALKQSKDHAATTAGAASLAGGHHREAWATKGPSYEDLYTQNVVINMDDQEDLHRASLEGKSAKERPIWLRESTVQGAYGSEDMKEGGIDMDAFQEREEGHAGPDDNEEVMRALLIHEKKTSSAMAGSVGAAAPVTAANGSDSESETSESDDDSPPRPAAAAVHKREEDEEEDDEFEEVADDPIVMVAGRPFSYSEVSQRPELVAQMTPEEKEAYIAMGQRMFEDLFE

6H–hTFIIEα V372D = biological target: T2, 6H–hTFIIEα V372D (human, UniProt P29083 1-439, V372D)
T2 sequence: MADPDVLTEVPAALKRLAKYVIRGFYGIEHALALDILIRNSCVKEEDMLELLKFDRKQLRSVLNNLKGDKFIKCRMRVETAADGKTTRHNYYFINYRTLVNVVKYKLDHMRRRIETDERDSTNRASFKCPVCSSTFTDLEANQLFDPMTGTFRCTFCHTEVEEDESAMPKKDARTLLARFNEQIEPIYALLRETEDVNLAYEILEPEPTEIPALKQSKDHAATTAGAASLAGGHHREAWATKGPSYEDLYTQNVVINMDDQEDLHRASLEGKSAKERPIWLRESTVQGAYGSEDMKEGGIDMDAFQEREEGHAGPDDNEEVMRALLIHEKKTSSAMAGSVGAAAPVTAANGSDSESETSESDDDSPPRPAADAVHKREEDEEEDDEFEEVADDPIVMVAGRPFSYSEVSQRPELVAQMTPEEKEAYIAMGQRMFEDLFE

6H–hTFIIEα E383A = biological target: T3, 6H–hTFIIEα E383A (human, UniProt P29083 1-439, E383A)
T3 sequence: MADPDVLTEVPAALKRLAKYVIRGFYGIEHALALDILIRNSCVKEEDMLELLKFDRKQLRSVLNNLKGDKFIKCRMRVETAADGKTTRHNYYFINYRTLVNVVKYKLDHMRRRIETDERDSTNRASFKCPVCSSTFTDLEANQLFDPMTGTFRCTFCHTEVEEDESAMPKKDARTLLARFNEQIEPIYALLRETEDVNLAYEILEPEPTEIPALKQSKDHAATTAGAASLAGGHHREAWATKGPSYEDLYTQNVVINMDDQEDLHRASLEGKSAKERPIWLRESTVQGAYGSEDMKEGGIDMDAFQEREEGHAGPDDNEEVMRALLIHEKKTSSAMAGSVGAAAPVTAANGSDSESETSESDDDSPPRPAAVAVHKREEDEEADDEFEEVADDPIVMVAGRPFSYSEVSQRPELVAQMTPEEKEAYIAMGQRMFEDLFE

6H–hTFIIEα F387A = biological target: T4, 6H–hTFIIEα F387A (human, UniProt P29083 1-439, F387A)
T4 sequence: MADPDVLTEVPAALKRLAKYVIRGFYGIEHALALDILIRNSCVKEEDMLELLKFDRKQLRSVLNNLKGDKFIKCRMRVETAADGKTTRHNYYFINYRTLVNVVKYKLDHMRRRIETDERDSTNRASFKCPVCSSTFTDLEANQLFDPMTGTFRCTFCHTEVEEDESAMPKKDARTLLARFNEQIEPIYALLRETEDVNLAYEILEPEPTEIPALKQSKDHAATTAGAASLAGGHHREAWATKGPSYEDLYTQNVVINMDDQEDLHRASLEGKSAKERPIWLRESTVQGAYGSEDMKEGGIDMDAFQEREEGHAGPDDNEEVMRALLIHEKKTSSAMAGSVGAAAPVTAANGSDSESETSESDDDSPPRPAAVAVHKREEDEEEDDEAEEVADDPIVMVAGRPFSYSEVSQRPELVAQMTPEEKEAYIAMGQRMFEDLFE

6H–hTFIIEα V390K = biological target: T5, 6H–hTFIIEα V390K (human, UniProt P29083 1-439, V390K)
T5 sequence: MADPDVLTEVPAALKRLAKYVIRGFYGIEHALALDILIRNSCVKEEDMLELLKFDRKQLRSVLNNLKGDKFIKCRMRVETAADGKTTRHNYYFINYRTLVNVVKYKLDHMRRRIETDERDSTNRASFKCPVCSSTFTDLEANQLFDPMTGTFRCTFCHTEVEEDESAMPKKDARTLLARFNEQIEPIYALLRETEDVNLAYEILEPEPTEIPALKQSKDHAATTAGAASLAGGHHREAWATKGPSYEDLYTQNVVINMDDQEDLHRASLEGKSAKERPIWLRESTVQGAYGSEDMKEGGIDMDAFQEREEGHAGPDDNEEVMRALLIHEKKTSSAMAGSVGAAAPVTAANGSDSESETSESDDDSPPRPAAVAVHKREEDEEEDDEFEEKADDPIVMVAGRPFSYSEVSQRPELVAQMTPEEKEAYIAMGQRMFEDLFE

Measured: binding result

B1: GST-tagged hTFIIEβ (natural protein)
chain: MDPSLLRERELFKKRALSTPVVEKRSASSESSSSSSKKKKTKVEHGGSSGSKQNSDHSNGSFNLKALSGSSGYKFGVLAKIVNYMKTRHQRGDTHPLTLDEILDETQHLDIGLKQKQWLMTEALVNNPKIEVIDGKYAFKPKYNVRDKKALLRLLDQHDQRGLGGILLEDIEEALPNSQKAVKALGDQILFVNRPDKKKILFFNDKSCQFSVDEEFQKLWRSVTVDSMDEEKIEEYLKRQGISSMQESGPKKVAPIQRRKKPASQKKRRFKTHNEHLAGVLKDYSDITSSK
binds: 6H–hTFIIEα V372A | 6H–hTFIIEα V372D | 6H–hTFIIEα E383A | 6H–hTFIIEα F387A | 6H–hTFIIEα V390K
